Results published in US20220056119A1.

B1: Activin B (homodimer of two inhibin betaB subunits), P09529 293-407 (ligand)
chain: GLECDGRTNLCCRQQFFIDFRLIGWNDWIIAPTSYYGNYCEGSCPAYLAGVPGSASSFHTAVVNQYRMRGLNPGTVNSCCIPTKLSTMSMLYFDDEYNIVKRDVPNMIVEECGCA
B2: Activin A (homodimer of two inhibin betaA subunits), P08476 311-426 (ligand)
chain: GLECDGKVNICCKKQFFVSFKDIGWNDWIIAPSGYHANYCEGECPSHIAGTSGSSLSFHSTVINHYRMRGHSPFANLKSCCVPTKLRPMSMLYYDDGQNIIKKDIQNMIVEECGCS

Target: activin Type II receptors (ActRIIA and ActRIIB) on A204/CAGAx12-Luc cells
Assay: cell-based or functional assay

Row | Binder | activation of the A204/CAGAx12-Luc cell line (Smad 2/3-luciferase reporter), EC50 [pM]
1 | B1 | 47
2 | B2 | 99
